The results in this text go back to patent publication US20160017016A1 (AstraZeneca / MedImmune, published 2016).

The target in experiment [1] is human GLP-1 receptor (GLP-1R) (human, UniProt P43220 24-463). Description: cell-based or functional assay.
For experiment [2], the target named is human glucagon receptor (GCGR) (human, UniProt P47871 26-477). Description: cell-based or functional assay.

*1 amine or outer side, *2 acyl side, *3 side chain or, on linkers, in order; H or OH if unused. Primed or numbered codes have the meaning given here. Where no end group is shown, it is not given here. Side-chain parts run from the residue outwards. [ ]: non-standard residue; d: D form. The star is where a group is joined. PEG4′ = 4 PEG units (K(PEGxpalm): Lys with x PEG units and palmitoyl at epsilon N, C-terminal (PEG)4); γGlu = O=C(O)[C@H](CCC(=O)[*:2])N[*:1]; Palmitoyl = CCCCCCCCCCCCCCCC(=O)*; PEG12′ = not defined here Where only a bound is given, the exact number is not on record here.

Sequence of human glucagon receptor (GCGR) (P47871 26-477): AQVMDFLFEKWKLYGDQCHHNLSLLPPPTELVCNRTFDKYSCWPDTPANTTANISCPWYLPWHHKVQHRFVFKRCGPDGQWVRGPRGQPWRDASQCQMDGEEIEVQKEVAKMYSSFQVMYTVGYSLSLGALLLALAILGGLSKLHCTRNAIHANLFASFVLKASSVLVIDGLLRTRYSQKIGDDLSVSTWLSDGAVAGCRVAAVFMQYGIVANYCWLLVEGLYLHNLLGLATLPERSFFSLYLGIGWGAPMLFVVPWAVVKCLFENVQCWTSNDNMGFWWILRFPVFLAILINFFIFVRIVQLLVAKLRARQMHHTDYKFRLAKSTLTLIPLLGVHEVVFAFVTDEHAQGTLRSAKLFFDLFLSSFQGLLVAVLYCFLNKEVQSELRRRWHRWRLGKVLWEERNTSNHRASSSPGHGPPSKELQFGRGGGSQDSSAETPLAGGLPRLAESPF

For the molecule HSQGTFTSDYSKYLDSK([γGlu-Palmitoyl])RAQRDFVAWLV[PEG12′] (not fully specified; printed as HSQGTFTSDYSKYLDSBRAQRDFVAWLVZ12) [g828], the “cAMP activity, GLP1 EC50 nM” value in experiment [1] is 0.04 nM. Besides, the “cAMP activity, Glcg EC50 nM” value in experiment [2] amounted to 0.02 nM.
For HGQGTFTSDYSKYLDSK([γGlu-Palmitoyl])RAQDFVEWLV[PEG4′] [g694] the same measures were 0.07 nM and 0.2 nM.
In the same order, the values of HSQGTFTSDYSKYLDSRRAQDFVQWLV (C-terminal 11-aminoundecanoic acid (Aud)) [g358] are 3.2 nM and 0.03 nM.
Consider HSQGTFTSDYSKYLDSXRAQDFVQWLE (K(PEG3-palm) at 17; C-terminal PEG4) [g503], for which, in experiment [1], the “cAMP activity, GLP1 EC50 nM” value was 0.02 nM. Moreover, the “cAMP activity, Glcg EC50 nM” value in experiment [2] turned out to be 0.002 nM.
Regarding HGQGTFTSDYSKYLDSEK([γGlu-Palmitoyl])ARDFVAWLV[PEG4′] [g735], the “cAMP activity, GLP1 EC50 nM” value in experiment [1] was 0.8 nM. In addition, in experiment [2], the “cAMP activity, Glcg EC50 nM” value was more than 1800 nM.
As for HSQGTFTSDYSKYLDK([PEG4′-Palmitoyl])SRARDFVAWLV[PEG4′] [g972], the “cAMP activity, GLP1 EC50 nM” value in experiment [1] was determined as 0.03 nM. Besides, in experiment [2], the “cAMP activity, Glcg EC50 nM” value stood at 0.03 nM.
In the case of HGQGTFTSDYSKYLDSXRAQDFVQWLE (K(gE-palm) at 17; C-terminal PEG4) [g516], the “cAMP activity, GLP1 EC50 nM” value in experiment [1] was found to be 0.6 nM. For the same molecule, the “cAMP activity, Glcg EC50 nM” value in experiment [2] stood at 0.08 nM.
In the same order, the values of HSQGTFTSDYSKYLDSXRAQDFVQWLV (not fully specified; K(PEG4-palm) at 17; C-terminal PEG8) [g439] are 0.008 nM and 0.002 nM.
In the same order, the values of HSQGTFTSDYSKYLDK([PEG4′-Palmitoyl])RRAQDFVQWLE[PEG4′] [g495] are 0.09 nM and 0.002 nM.
In the same order, the values of HSQGTFTSDYSKYLDSRK([γGlu-Palmitoyl])AQDFVQWLE[PEG4′] [g454] are 0.5 nM and 0.08 nM.
For HSEGTFTSDYSKYK([γGlu-Palmitoyl])DSRRAQDFVQWLV[PEG4′] [g515], in experiment [1], the “cAMP activity, GLP1 EC50 nM” value was 0.1 nM. In addition, the “cAMP activity, Glcg EC50 nM” value in experiment [2] is 0.4 nM.
In the same order, the values of HGQGTFTSDYSKYLDSK([γGlu-Palmitoyl])RAEDFVQWLV[PEG4′] [g693] are 0.1 nM and more than 2 nM.
On to HSQGTFTSDYSKYKDSRRAQDFVQWLV[PEG4′] (not fully specified (residue 14); printed as HSQGTFTSDYSKYB1DSRRAQDFVQWLVZ4) [g427], for which the “cAMP activity, GLP1 EC50 nM” value in experiment [1] was 0.004 nM. Also, in experiment [2], the “cAMP activity, Glcg EC50 nM” value worked out at 0.002 nM.
Turning to HSQGTFTSDYSKYLDKRRAQDFVQWLV[PEG4′] (not fully specified (residue 16); printed as HSQGTFTSDYSKYLDB1RRAQDFVQWLVZ4) [g425], in experiment [1], the “cAMP activity, GLP1 EC50 nM” value was determined as 0.008 nM. In addition, the “cAMP activity, Glcg EC50 nM” value in experiment [2] was 0.002 nM.
In the same order, the values of HGQGTFTSDYSKYK([γGlu-Palmitoyl])DSRRAQDFVQWLV[PEG4′] [g514] are 0.1 nM and 0.02 nM.
For HSQGTFTSDYSKYLDSXRAQDFVQWLV (not fully specified; K(PEG4-palm) at 17; C-terminal PEG12) [g440] the same measures were 0.008 nM and 0.002 nM.
For HSQGTFTSDYSKYLDSRRAXDFVQWLV (K(PEG4-palm) at 20; C-terminal PEG4) [g457] the same measures were 0.03 nM and 0.004 nM.
For the molecule HSQGTFTSDYSKYLDK([γGlu-Palmitoyl])RRAQDFVQWLV[PEG4′] [g424], the “cAMP activity, GLP1 EC50 nM” value in experiment [1] is 0.4 nM. In experiment [2], the “cAMP activity, Glcg EC50 nM” value amounted to 0.009 nM.
For HSQGTFTSDYSRYLDSK([γGlu-Palmitoyl])RARDFVAWLV[PEG4′] [g827] the same measures were 0.2 nM and 0.04 nM.
In the same order, the values of HSQGTFTSDYSKYLDSRRAQDFVQWLV (C-terminal 6-aminohexanoic acid (Ahx)) [g357] are 1.6 nM and 0.08 nM.
For HSQGTFTSDYSXYLDSRRAQDFVQWLV (not fully specified; K(PEG4-palm) at 12; C-terminal PEG4) [g417] the same measures were 0.02 nM and 0.003 nM.
In the case of HSQGTFTSDYSKYLDSKRAQDFVQWLEA (K(gE-palm) at 17 (printed as B); C-terminal PEG2) [g533], the “cAMP activity, GLP1 EC50 nM” value in experiment [1] stood at 0.09 nM. Further, the “cAMP activity, Glcg EC50 nM” value in experiment [2] came out at 0.003 nM.
Consider HGQGTFTSDYSEYLDSK([γGlu-Palmitoyl])RAQDFVQWLV[PEG4′] [g695], for which, in experiment [1], the “cAMP activity, GLP1 EC50 nM” value was determined as 0.2 nM. Further, in experiment [2], the “cAMP activity, Glcg EC50 nM” value turned out to be 4 nM.
In the same order, the values of HSQGTFTSDYSKYLDSRKAQDFVQWLV[PEG4′] (not fully specified (residue 18); printed as HSQGTFTSDYSKYLDSRB1AQDFVQWLVZ4) [g423] are 0.01 nM and 0.004 nM.
For HSQGTFTSDYSKYLDSRK([γGlu-Palmitoyl])AQDFVQWLV[PEG4′] [g422] the same measures were 0.2 nM and 0.7 nM.
For HSQGTFTSDYSKYLDSXRAQDFVQWLE (not fully specified; K(PEG4-palm) at 17; C-terminal PEG4) [g429] the same measures were 0.004 nM and 0.005 nM.
Consider HGQGTFTSDYSKYLESK([γGlu-Palmitoyl])RAQDFVQWLV[PEG4′] [g498], for which the “cAMP activity, GLP1 EC50 nM” value in experiment [1] came out at 0.6 nM. The “cAMP activity, Glcg EC50 nM” value in experiment [2] amounted to 2 nM.
For HSQGTFTSDYSKYLDSXRAQDFVQWLE (K(PEG2-palm) at 17; C-terminal PEG4) [g502] the same measures were 0.03 nM and 0.001 nM.
